The source of these data is US12398178 (dated 2025).

For one assay, the target named is Compound 2. Briefly: SPR (Biacore). (In general: Surface plasmon resonance follows binding to a sensor surface in real time, without labels.)
Assay [1] addresses i,i+7 non-binder Linker 7. Briefly: fluorescence polarization; xStAx41 derivative.
Assay [2] addresses i,i+7 non-binder Linker 4. Nature of the assay: fluorescence polarization; xStAx41 derivative. Background: In fluorescence polarisation assays a small probe gives low polarisation when free and higher when bound to something large.
A further assay addresses i,i+4 binder Linker 6. Briefly: fluorescence polarization; xStAx41 derivative.
The next assay has as its target i,i+7 binder Linker 3. Nature of the assay: fluorescence polarization; xStAx41 derivative.
Assay [3] has as its target i,i+7 non-binder Linker 3. Briefly: fluorescence polarization; xStAx41 derivative.
For assay [4], the target named is i,i+7 non-binder Linker 6. Briefly: fluorescence polarization; xStAx41 derivative.
The target in another assay is i,i+7 binder Linker 1. Nature of the assay: fluorescence polarization; xStAx41 derivative.
In a further assay the target is i,i+7 binder Linker 8. Nature of the assay: fluorescence polarization; xStAx41 derivative.
The next assay concerns the target i,i+4 binder Linker 9. Briefly: fluorescence polarization; xStAx41 derivative.
The target in assay [5] is i,i+4 non-binder Linker 7. Briefly: fluorescence polarization; xStAx41 derivative.
In the next assay the target is i,i+4 binder Linker 8. Briefly: fluorescence polarization; xStAx41 derivative.
The target in a further assay is i,i+7 binder Linker 2. Briefly: fluorescence polarization; xStAx41 derivative.
In a further assay the target is i,i+4 binder Linker 1. Briefly: fluorescence polarization; xStAx41 derivative.
Another assay concerns the target i,i+7 binder Linker 7. Briefly: fluorescence polarization; xStAx41 derivative.
For assay [6], the target named is i,i+4 non-binder Linker 5. Briefly: fluorescence polarization; xStAx41 derivative.
The target of assay [7] is i,i+7 non-binder Linker 2. Nature of the assay: fluorescence polarization; xStAx41 derivative.
For assay [8], the target named is i,i+4 non-binder Linker 6. Briefly: fluorescence polarization; xStAx41 derivative.
Assay [9] has as its target i,i+4 non-binder Linker 4. Nature of the assay: fluorescence polarization; xStAx41 derivative.
Assay [10] has as its target i,i+4 non-binder Linker 1. Briefly: fluorescence polarization; xStAx41 derivative.
Another assay concerns the target i,i+7 binder Linker 5. Briefly: fluorescence polarization; xStAx41 derivative.
Another assay addresses i,i+4 binder Linker 3. Briefly: fluorescence polarization; xStAx41 derivative.
Another assay has as its target i,i+7 binder Linker 9. Nature of the assay: fluorescence polarization; xStAx41 derivative.
The target of the next assay is i,i+4 binder Linker 4. Nature of the assay: fluorescence polarization; xStAx41 derivative.
The target in assay [11] is i,i+7 non-binder Linker 8. Briefly: fluorescence polarization; xStAx41 derivative.
In assay [12] the target is i,i+4 non-binder Linker 3. Briefly: fluorescence polarization; xStAx41 derivative.
Assay [13] concerns the target i,i+7 non-binder Linker 9. Briefly: fluorescence polarization; xStAx41 derivative.
Assay [14] deals with i,i+7 non-binder Linker 1. Nature of the assay: fluorescence polarization; xStAx41 derivative.
The target in assay [15] is i,i+7 non-binder Linker 5. Nature of the assay: fluorescence polarization; xStAx41 derivative.
The target in the next assay is i,i+7 binder Linker 6. Briefly: fluorescence polarization; xStAx41 derivative.
The target in assay [16] is i,i+4 non-binder Linker 9. Nature of the assay: fluorescence polarization; xStAx41 derivative.
Another assay has as its target i,i+4 binder Linker 5. Briefly: fluorescence polarization; xStAx41 derivative.
A further assay deals with i,i+4 binder Linker 7. Nature of the assay: fluorescence polarization; xStAx41 derivative.
The target in the next assay is i,i+4 binder Linker 2. Nature of the assay: fluorescence polarization; xStAx41 derivative.
Assay [17] deals with i,i+4 non-binder Linker 2. Briefly: fluorescence polarization; xStAx41 derivative.
Another assay addresses i,i+7 binder Linker 4. Briefly: fluorescence polarization; xStAx41 derivative.
The target in assay [18] is i,i+4 non-binder Linker 8. Briefly: fluorescence polarization; xStAx41 derivative.

Some results are limits rather than exact numbers.

B1: beta-Catenin (other)
chain: HAVVNLINYQDDAELATRAIPELTKLLNDEDQVVVNKAAVMVHQLSKKEASRHAIMRSPQMVSAIVRTMQNTNDVETARCTAGTLHNLSHHREGLLAIFKSGGIPALVKMLGSPVDSVLFYAITTLHNLLLHQEGAKMAVRLAGGLQKMVALLNKTNVKFLAITTDCLQILAYGNQESKLIILASGGPQALVNIMRTYTYEKLLWTTSRVLKVLSVCSSNKPAIVEAGGMQALGLHLTDPSQRLVQNCLWTLRNLSDAATKQEGMEGLLGTLVQLLGSDDINVVTCAAGILSNLTCNNYKNKMMVCQVGGIEALVRTVLRAGDREDITEPAICALRHLTSRHQEAEMAQNAVRLHYGLPVVVKLLHPPSHWPLIKATVGLIRNLALCPANHAPLREQGAIPRLVQLLVRAHQDTQRRTSMGGTQQQFVEGVRMEEIVEGCTGALHILARDVHNRIVIRGLNTIPLFVQLLYSPIENIQRVAAGVLCELAQDKEAAEAIEAEGATAPLTELLHSRNEGVATYAAAVLFRMSED
Consider B1, for which, in the assay with Compound 2, the Kd turned out to be 0.45 µM.

B2: beta-catenin (other)
chain: ATQADLMELDMAMEPDRKAAVSHWQQQSYLDSGIHSGATTTAPSLSGKGNPEEEDVDTSQVLYEWEQGFSQSFTQEQVADIDGQYAMTRAQRVRAAMFPETLDEGMQIPSTQFDAAHPTNVQRLAEPSQMLKHAVVNLINYQDDAELATRAIPELTKLLNDEDQVVVNKAAVMVHQLSKKEASRHAIMRSPQMVSAIVRTMQNTNDVETARCTAGTLHNLSHHREGLLAIFKSGGIPALVKMLGSPVDSVLFYAITTLHNLLLHQEGAKMAVRLAGGLQKMVALLNKTNVKFLAITTDCLQILAYGNQESKLIILASGGPQALVNIMRTYTYEKLLWTTSRVLKVLSVCSSNKPAIVEAGGMQALGLHLTDPSQRLVQNCLWTLRNLSDAATKQEGMEGLLGTLVQLLGSDDINVVTCAAGILSNLTCNNYKNKMMVCQVGGIEALVRTVLRAGDREDITEPAICALRHLTSRHQEAEMAQNAVRLHYGLPVVVKLLHPPSHWPLIKATVGLIRNLALCPANHAPLREQGAIPRLVQLLVRAHQDTQRRTSMGGTQQQFVEGVRMEEIVEGCTGALHILARDVHNRIVIRGLNTIPLFVQLLYSPIENIQRVAAGVLCELAQDKEAAEAIEAEGATAPLTELLHSRNEGVATYAAAVLFRMSEDKPQDYKKRLSVELTSSLFRTEPMAWNETADLGLDIGAQGEPLGYRQDDPSYRSFHSGGYGQDALGMDPMMEHEMGGHHPGADYPVDGLPDLGHAQDLMDGLPPGDSNQLAWFDTDL
Consider B2, for which the Kd was over 50 µM in [1]; over 50 µM in assay [2]; 5.6 µM with i,i+4 binder Linker 6; 25.4 µM with i,i+7 binder Linker 3; over 50 µM in assay [3]; over 50 µM in assay [4]. The Kd is 2.9 µM in the assay with i,i+7 binder Linker 1; 16.3 µM with i,i+7 binder Linker 8; 2.4 µM with i,i+4 binder Linker 9; over 50 µM in assay [5]; 28.7 µM in the assay with i,i+4 binder Linker 8; over 50 µM with i,i+7 binder Linker 2. The Kd in the assay with i,i+4 binder Linker 1 was over 50 µM; with i,i+7 binder Linker 7, 0.6 µM; in assay [6], over 50 µM; in assay [7], over 50 µM; in [8], over 50 µM; in assay [9], over 50 µM. For the same molecule, the Kd in assay [10] was over 50 µM; with i,i+7 binder Linker 5, 14.6 µM; with i,i+4 binder Linker 3 it was 7.1 µM; with i,i+7 binder Linker 9, 10.5 µM; with i,i+4 binder Linker 4 it was 10.1 µM; in assay [11], over 50 µM. For the same molecule, the Kd in [12] was over 50 µM; in [13], over 50 µM; in [14], over 50 µM; in assay [15], over 50 µM; with i,i+7 binder Linker 6, 5.3 µM; in [16], over 50 µM. Besides, the Kd with i,i+4 binder Linker 5 was 8.6 µM; with i,i+4 binder Linker 7, 7.8 µM; in the assay with i,i+4 binder Linker 2 it was 3.1 µM; in [17], over 50 µM; with i,i+7 binder Linker 4, 8.7 µM; in assay [18] it was over 50 µM.

As usually defined, the Kd is a measure of binding affinity in units of concentration. A higher Kd goes with a looser complex.
